Laboratory results reported in paper PMC4626089, “In Vitro Mutational Analysis of the β2 Adrenergic Receptor, an In Vivo Surrogate Odorant Receptor” (PLoS ONE, 2015).

Assay: GFP-labeled filopodia count per OP6 cell
Settings: glycan lost; control: WT mβ2AR::GFP

## mouse β2-adrenergic-receptor (mβ2AR): No-NxS
  localisation_or_trafficking, other: GFP-labeled filopodia per cell: no change, 13.6 ±8.3 vs 31.8 ±16.2
